Values of other authors, collected in patent US9394339B2, “Stabilized formulations of peptides and proteins protecting against non-enzymatic degradation” (Lyotropic Therapeutics, Inc., priority 2007, dated 2016).
Like-named read-outs stand apart in the source and are kept apart here.

B1: Procathepsin K (1BY8): human protein (protein, UniProt P43235 16-329, looked up)
pro-form: LYPEEILDTHWELWKKTHRKQYNNKVDEISRRLIWEKNLKYISIHNLEASLGVHTYELAMNHLGDMTSEEVVQKMTGLKVPLSHSRSNDTLYIPEWEGRAPDSVDYRKKGYVTPVKNQGQCGSCWAFSSVGALEGQLKKKTGKLLNLSPQNLVDCVSENDGCGGGYMTNAFQYVQKNRGIDSEDAYPYVGQEESCMYNPTGKAAKCRGYREIPEGNEKALKRAVARVGPVSVAIDASLTSFQFYSKGVYYDESCNSDNLNHAVLAVGYGIQKGNKHWIIKNSWGENWGNKGYILMARNKNNACGIANLASFPKM
modifications: pro-form
B2: Catalase (1QQW): human protein (protein, UniProt P04040 2-527, looked up)
Catalase: ADSRDPASDQMQHWKEQRAAQKADVLTTGAGNPVGDKLNVITVGPRGPLLVQDVVFTDEMAHFDRERIPERVVHAKGAGAFGYFEVTHDITKYSKAKVFEHIGKKTPIAVRFSTVAGESGSADTVRDPRGFAVKFYTEDGNWDLVGNNTPIFFIRDPILFPSFIHSQKRNPQTHLKDPDMVWDFWSLRPESLHQVSFLFSDRGIPDGHRHMNGYGSHTFKLVNANGEAVYCKFHYKTDQGIKNLSVEDAARLSQEDPDYGIRDLFNAIATGKYPSWTFYIQVMTFNQAETFPFNPFDLTKVWPHKDYPLIPVGKLVLNRNPVNYFAEVEQIAFDPSNMPPGIEASPDKMLQGRLFAYPDTHRHRLGPNYLHIPVNCPYRARVANYQRDGPMCMQDNQGGAPNYYPNSFGAPEQQPSALEHSIQYSGEVRRFNTANDDNVTQVRAFYVNVLNEEQRKRLCENIAGHLKDAQIFIQKKAVKNFTEVHPDYGSHIQALLDKYNAEKPKNAIHTFVQSGSHLAAREKANL
B3: Farnesyltransferase (1EZF): human protein (protein, UniProt P37268 1-417, looked up)
Squalene synthase: MEFVKCLGHPEEFYNLVRFRIGGKRKVMPKMDQDSLSSSLKTCYKYLNQTSRSFAAVIQALDGEMRNAVCIFYLVLRALDTLEDDMTISVEKKVPLLHNFHSFLYQPDWRFMESKEKDRQVLEDFPTISLEFRNLAEKYQTVIADICRRMGIGMAEFLDKHVTSEQEWDKYCHYVAGLVGIGLSRLFSASEFEDPLVGEDTERANSMGLFLQKTNIIRDYLEDQQGGREFWPQEVWSRYVKKLGDFAKPENIDLAVQCLNELITNALHHIPDVITYLSRLRNQSVFNFCAIPQVMAIATLAACYNNQQVFKGAVKIRKGQAVTLMMDATNMPAVKAIIYQYMEEIYHRIPDSDPSSSKTRQIISTIRTQNLPNCQLISRSHYSPIYLSFVMLLAALSWQYLTTLSQVTEDYVQTGEH
B4: S-adenosylhomocysteine hydrolase (1A7A): human protein (protein, UniProt P23526 2-432, looked up)
Adenosylhomocysteinase: SDKLPYKVADIGLAAWGRKALDIAENEMPGLMRMRERYSASKPLKGARIAGCLHMTVETAVLIETLVTLGAEVQWSSCNIFSTQDHAAAAIAKAGIPVYAWKGETDEEYLWCIEQTLYFKDGPLNMILDDGGDLTNLIHTKYPQLLPGIRGISEETTTGVHNLYKMMANGILKVPAINVNDSVTKSKFDNLYGCRESLIDGIKRATDVMIAGKVAVVAGYGDVGKGCAQALRGFGARVIITEIDPINALQAAMEGYEVTTMDEACQEGNIFVTTTGCIDIILGRHFEQMKDDAIVCNIGHFDVEIDVKWLNENAVEKVNIKPQVDRYRLKNGRRIILLAEGRLVNLGCAMGHPSFVMSNSFTNQVMAQIELWTHPDKYPVGVHFLPKKLDEAVAEAHLGKLNVKLTKLTEKQAQYLGMSCDGPFKPDHYRY
B5: Dihydrofolate reductase (1DRF): human protein (protein, UniProt P00374 1-187, looked up)
Dihydrofolate reductase: MVGSLNCIVAVSQNMGIGKNGDLPWPPLRNEFRYFQRMTTTSSVEGKQNLVIMGKKTWFSIPEKNRPLKGRINLVLSRELKEPPQGAHFLSRSLDDALKLTEQPELANKVDMVWIVGGSSVYKEAMNHPGHLKLFVTRIMQDFESDTFFPEIDLEKYKLLPEYPGVLSDVQEEKGIKYKFEVYEKND

[1] = aqueous solution, pH 7.4, 37° C., Tris-HCl buffer

Molecule | T1/10 (time to 10% degradation by deamidation) [1] [days] | T1/2 (half-life, deamidation) (buffer, pH 7.4) [days] | T1/10 (time to 10% degradation by deamidation) (pH 7.4) [days]
B1 | 4.3 |  | 
B2 | 3.8 |  | 
B3 | 4.0 |  | 
B4 | 4.3 |  | 
B5 |  | 25 | 3.8
